Data taken from US20230129258A1, “HETEROTANDEM BICYCLIC PEPTIDE COMPLEXES” (BicycleTx Limited, priority 2019, published 2023).
One block for each binder: values may come before it. Starred links: 1 amine or outer side, 2 acyl side, 3 side chain; linkers in the order of their positions; H or OH if unused. Positions of bridges follow the written chain, without caps; N, C: chain ends. Non-standard residues stand in square brackets, D forms with d. Chains are numbered I, II in the order given. No end group written: not given here. *: point of attachment. TATA = O=C(CC[*:1])N1CN(C(=O)CC[*:2])CN(C(=O)CC[*:3])C1; Hyp = O=C(O)[C@@H]1C[C@@H](O)CN1; hArg = N=C(N)NCCCC[C@H](N)C(=O)O; tBuAla = CC(C)(C)C[C@H](N)C(=O)O; dK(PYA) = not defined here; Nle = CCCC[C@H](N)C(=O)O; Pent4ynoyl = C#CCCC(=O)*

Target: CD137 on Jurkat reporter cells (Promega kit CS196005) (UniProt Q07011)
Sequence (Q07011 24-255 limits assumed): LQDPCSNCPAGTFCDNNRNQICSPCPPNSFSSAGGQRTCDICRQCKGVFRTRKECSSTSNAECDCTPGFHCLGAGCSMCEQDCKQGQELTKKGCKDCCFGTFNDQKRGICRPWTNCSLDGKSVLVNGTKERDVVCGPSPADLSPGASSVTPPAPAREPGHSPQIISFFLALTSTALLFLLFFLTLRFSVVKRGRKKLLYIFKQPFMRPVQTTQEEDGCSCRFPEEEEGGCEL
Experiment: cell-based or functional assay

B1: heterotandem bicyclic peptide complex BCY12491 (peptide)
peptide 1: A[hArg]DC[Hyp]LVNPLCLHP[dD]W[hArg]C
peptide 2: Ac-C[tBuAla]PE[dK](Pent4ynoyl)PYCFADPY[Nle]CA
modifications: linker I:4-I:11-I:18, II:1-II:8-II:15 via TATA (inferred); also: N-(acid-PEG3)-N-bis(PEG3-azide) linker at chain 1 N-terminus, joined to dLys(PYA)4 of two BCY8928 chains (1:2 complex)
Fold Improvement over BCY9173, EC50, PC3: 2.3 fold
Fold Improvement over Emax (BCY9173), PC3: 1.8 fold

B3: BCY12724 (peptide)
peptide 1: A[hArg]DC[Hyp]LVNPLCLHP[dD]W[hArg]C
peptide 2: Ac-C[tBuAla]PE[dK(PYA)]PYCFADPY[Nle]C
modifications: linker I:4-I:11-I:18, II:1-II:8-II:15 via TATA; not fully specified (bridges); reading uncertain; also: two CD137 bicycles per complex (EphA2:CD137 1:2)
Fold Improvement over BCY9173, EC50, PC3: 1.1 fold
Fold Improvement over Emax (BCY9173), PC3: 1.9 fold

B5: BCY13279 (peptide)
peptide 1: Ac-C[Hyp]LVNPLCLHP[dD]W[hArg]CL[dH]G[dK]
peptide 2: Ac-C[tBuAla]PE[dK](Pent4ynoyl)PYCFADPY[Nle]CA
modifications: linker I:1-I:8-I:15, II:1-II:8-II:15 via TATA (inferred); also: linker N-(acid-PEG3)-N-bis(PEG3-azide) on C-terminal dK of chain 1, joins two chain 2 copies via PYA triazoles
Fold Improvement over BCY9173, EC50, PC3: 4.74 fold
Fold Improvement over Emax (BCY9173), PC3: 2.08 fold

B6: BCY14051 (peptide)
peptide 1: AXDCXLVNPLCLXPDWXC
peptide 2: CXPEXPYCFADPYXCA
modifications: BCY8928: Ac-(SEQ ID NO: 11)-A; TATA; linker at dLys(PYA)4; BCY13919: A[HArg]D-(SEQ ID NO: 158); TATA; linker at N-terminus
Fold Improvement over BCY9173, EC50, PC3: 3.15 fold
Fold Improvement over Emax (BCY9173), PC3: 1.88 fold

B8: BCY14052 (peptide)
peptide 1: AXDCXLVNPLCLFPDWXC
peptide 2: CXPEXPYCFADPYXCA
modifications: BCY8928: Ac-(SEQ ID NO: 11)-A; TATA; linker at dLys(PYA)4; BCY13920: A[HArg]D-(SEQ ID NO: 159); TATA; linker at N-terminus
Fold Improvement over BCY9173, EC50, PC3: 4.16 fold
Fold Improvement over Emax (BCY9173), PC3: 1.89 fold

Next, values leading:

Fold Improvement over BCY9173, EC50, PC3: 0.1 fold
Fold Improvement over Emax (BCY9173), PC3: 0.7 fold
B2: BCY12725 (peptide)
peptide 1: A[hArg]DC[Hyp]LVNPLCLHP[dD]W[hArg]C
peptide 2: Ac-C[tBuAla]PE[dK(PYA)]PYCFANPY[Nle]C
modifications: linker I:4-I:11-I:18, II:1-II:8-II:15 via TATA; not fully specified (bridges); reading uncertain; also: two CD137 bicycles per complex (EphA2:CD137 1:2)

Fold Improvement over BCY9173, EC50, PC3: 2.05 fold
Fold Improvement over Emax (BCY9173), PC3: 1.91 fold
B4: BCY14050 (peptide)
peptide 1: AXDCXLVNPLCLXPDWXC
peptide 2: CXPEXPYCFADPYXCA
modifications: BCY8928: Ac-(SEQ ID NO: 11)-A; TATA; linker at dLys(PYA)4; BCY13918: A[HArg]D-(SEQ ID NO: 157); TATA; linker at N-terminus

Fold Improvement over BCY9173, EC50, PC3: 2.2 fold
Fold Improvement over Emax (BCY9173), PC3: 1.8 fold
B7: BCY12723 (peptide)
peptide 1: A[hArg]DC[Hyp]LVNPLCLHP[dD]W[hArg]C
peptide 2: Ac-C[tBuAla]EE[dK(PYA)]PYCFADPY[Nle]C
modifications: linker I:4-I:11-I:18, II:1-II:8-II:15 via TATA; not fully specified (bridges); reading uncertain; also: two CD137 bicycles per complex (EphA2:CD137 1:2)
